Laboratory results as given in publication doi:10.1101/2025.04.25.650734 (bioRxiv, 2025).
Values belong to the molecule of their own block, whether it stands above or below them.

Columns and labels:
Assay in all cases: single-particle TIRF colocalisation with photobleaching step counting
[1] = target: mTFP-K-K, dimer of linked wild type Kir2.1 subunits
[2] = target: tetrameric Kir2.1 construct with three SUMO1 binding sites
[3] = target: mTFP-K-K-K-K, linked tetramer of wild type Kir2.1 subunits
[4] = target: mTFP-Q-K-K-Q tetramer of concatenated Kir2.1 subunits
[5] = target: mTFP-K-Q-K-Q tetramer of concatenated Kir2.1 subunits
[6] = target: mTFP-Q-K-Q-Q tetramer of concatenated Kir2.1 subunits
[7] = target: mTFP-K-Q, dimer of a wild type Kir2.1 subunit linked to a Kir2.1-K49Q subunit
[8] = target: the molecule itself

stoichiometry N [1]: 2
Molecule: mTFP-K-K, dimer of linked wild type Kir2.1 subunits

stoichiometry N (SUMO1 monomers per channel) [2]: 2
stoichiometry N (SUMO1 monomers per channel) [3]: 2
stoichiometry N (SUMO1 monomers per channel) [4]: 1
stoichiometry N (SUMO1 monomers per channel) [5]: 2
stoichiometry N (SUMO1 monomers per channel) [6]: 1
stoichiometry N (SUMO1 monomers per channel) [1]: 2
stoichiometry N (SUMO1 monomers per channel) [7]: 2
Molecule: mCherry-SUMO1 (from UniProt P63165-1 1-97) (natural protein)

stoichiometry N [7]: 2
Molecule: mTFP-K-Q, dimer of a wild type Kir2.1 subunit linked to a Kir2.1-K49Q subunit

B1: mTFP1-tagged Kir2.1 (natural protein)
chain: MGSVRTNRYSIVSSEEDGMKLATMAVANGFGNGKSKVHTRQQCRSRFVKKDGHCNVQFINVGEKGQRYLADIFTTCVDIRWRWMLVIFCLAFVLSWLFFGCVFWLIALLHGDLDASKESKACVSEVNSFTAAFLFSIETQTTIGYGFRCVTDECPIAVFMVVFQSIVGCIIDAFIIGAVMAKMAKPKKRNETLVFSHNAVIAMRDGKLCLMWRVGNLRKSHLVEAHVRAQLLKSRITSEGEYIPLDQIDINVGFDSGIDRIFLVSPITIVHEIDEDSPLYDLSKQDIDNADFEIVVILEGMVEATAMTTQCRSSYLANEILWGHRYEPVLFEEKHCYKVDYSRFHKTYEVPNTPLCSARDLAEKKYILSNANSFCYENEVALTSKEEEDSENGVPESTSTDSPPGIDLHNQASVPLEPRPLRRESEI
stoichiometry N [8]: 4
